The record followed here is publication PMC7949130.

Assay [1] addresses nonsulfated human cationic trypsin purified from E. coli (human). The assay can be described thus: equilibrium binding assay; equilibrium dissociation constant of ecotin on human trypsins, 15 h of incubation; further conditions not told for ecotin.
Assay [2] deals with native sulfated human cationic trypsin purified from pancreatic juice (human). Described as above.

One may read the Kd as a measure of binding affinity in units of concentration. High values mean a looser complex, low ones a tighter complex. With “ecotin (from UniProt P23827 21-162) (natural protein)”, the values for the Kd in assay [1] and in assay [2] were 8.1 pM and 5.6 pM, respectively.
